The target in this assay is tubulin (rat). Kind of assay: cell-based or functional assay.

Ends that are not written are not given here. * marks the point of attachment. Biotin = O=C1N[C@H]2[C@H](CS[C@H]2CCCCC(=O)*)N1

Molecule Biotin-YSSYSAPVSSSLSVRRSYSSSSGS [NFL-TBS40-63 peptide, biotinylated] came in with a cells with altered microtubule network (immunocytochemistry), 9L rat glioma cells of 76.7%; a cells with altered microtubule network (immunocytochemistry), F98 rat glioma cells of 82%; a cells with altered microtubule network (immunocytochemistry), rat neurons of 8.5%; a cells with altered microtubule network (immunocytochemistry), rat primary astrocytes of 4.7%.

Source of the values: patent US20130004429A1.
